Results: US20240027454

Key:
[1] = tested on: Fmoc-AAPF-aminoethyl-(Remazol Black B)-(N-acetyl)-ethylamide
[2] = tested on: T1, AAPVA-RBB linked to polymer, product of Step A of Example 62 after trifluoroacetic acid treatment
T1 sequence: AAPVX

CMC 9M31F-AAPFA-RBB [3] = tested on: CMC 9M31F-AAPFA-RBB
[4] = tested on: T2, AAPVA-RBB linked to poly-(N-acroyl-Boc-Lys-OH)-co-(acroyl-Cys(Trt)-OH)
T2 sequence: AAPVX

[5] = tested on: T3, 4-([4-(H-Ala-Ala-Pro-Val-Ala)amido N-piperazino]phenyl)-bis-(4-dimethyl-aminophenyl)-carbenium ion
T3 sequence: AAPVX

CMC 9M31F-AAPF-RBB [6] = tested on: CMC 9M31F-AAPF-RBB
[7] = target: Fmoc-AAPF-aminoethyl-(Remazol Black B)-(N-acetyl)-ethylamide; remark: listed apart in the source
H-AAPVAA-RBB = target: T4, H-AAPVAA-RBB
T4 chain: AAPVAX

Fmoc-APV-Indoxyl ester = target: T5, Fmoc-APV-Indoxyl ester
T5 chain: APV

Fmoc-AAA-indoxyl ester = target: T6, Fmoc-AAA-indoxyl ester
T6 chain: AAA

H-AAPFA-RBB = target: T7, H-AAPFA-RBB
T7 chain: AAPFX

[8] = target: T8, Fmoc-AAPVAV-{2-hydroxy-3-[1-(5N-RBB-methyl)1,2,3-triazolyl)}propylamide
T8 chain: XAPVAX

[9] = target: AAPVA-RBB Bound to Paper Membrane
[10] = target: Fmoc-AAPV-4-methoxy-1-naphthol ester
[11] = target: Fmoc-AAPV-4-naphthol ester
[12] = target: HEC-PEG200-N-propionyl-AAPF-RBB
CMC 9M31F-AAPFA-RBB [13] = target: CMC 9M31F-AAPFA-RBB; remark: listed apart in the source
[14] = target: T9, Fmoc-F-V-T(Bzl)-F- indoxyl ester (not fully specified)
T9 chain: FVTF

H-AAAPM-RBB = target: T10, H-AAAPM-RBB
T10 chain: AAAPX

CMC 9M31F-AAPF-RBB [15] = target: CMC 9M31F-AAPF-RBB; remark: listed apart in the source
[16] = target: HEC-EDA-N-propionyl-AAPF-RBB
[17] = target: HEC-EDR176-N-Propionyl-AAPVA-RBB
[18] = target: T11, AAAPVV-RBB on polyacrylate bound to SiCore Amin beads, procedure f
T11 chain: AAAPVX

[19] = target: T12, AAAPV-RBB polyacrylamide with N,N-dioctylamine anchors (not fully specified)
T12 chain: AAAPX

[20] = target: T13, AAPVA-RBB linked to poly-(N-acroyl-Boc-Lys-OH)-co-(acroyl-Cys(Trt)-OH)
T13 chain: AAPVX

[21] = target: T14, Poly-co-[(N-mercaptoethyl acrylamide)-(AAAPVV-{RBB}-acrylamide)], procedure a
T14 chain: AAAPVX

[22] = target: T15, AAAPVV-RBB polyacrylamide with N,N-dioctylamine anchors (not fully specified)
T15 chain: AAAPVX

[23] = target: Fmoc-AAAPV-(N-acetyl)-indoxyl ester
[24] = target: T16, Poly-co-[(N-mercaptoethyl acrylamide)-(AAAPV-{RBB}-acrylamide)], procedure a (not fully specified)
T16 chain: AAAPX

[25] = target: T17, AAAPVV-RBB linked through Jeffamine EDR 176 to polyacrylate quenched with N,N-dioctyl amine (not fully specified)
T17 chain: AAAPVX

[26] = target: T18, AAPVA-RBB linked through ethylenediamine-glycyl spacer to polyacrylate (not fully specified)
T18 chain: AAPVX

[27] = target: Fmoc-AAPV-5-Bromo-4-Chloro-Indoxyl ester
[28] = target: T19, N-[(3-triethoxysilyl)propyl]-N'-[AAAPVV-RBB]urea bound to silica gel (not fully specified)
T19 chain: XAAPVX

[29] = target: T20, AAAPV-RBB linked through Jeffamine EDR 176 to polyacrylate quenched with N,N-dioctyl amine (not fully specified)
T20 chain: AAAPX

[30] = target: T21, Non-bead-bound polymeric material of Example 67 (AAAPVV-RBB polyacrylamide quenched with ethanolamine) (not fully specified)
T21 chain: AAAPVX

[31] = target: T22, Poly-co-[(N-mercaptoethyl acrylamide)-(AAAPVV-{RBB}-acrylamide)], procedure b
T22 chain: AAAPVX

[32] = target: N-(Propionyl-AAPV-RBB)-Propylamino HEC
[33] = target: T23, Poly-co-[(N-mercaptoethyl acrylamide)-(AAAPV-{RBB}-acrylamide)], procedure b
T23 chain: AAAPX

[34] = target: T24, AAAPVV-RBB on polyacrylate bound to Chemicell SiCore Amin beads
T24 chain: AAAPVX

[35] = target: T25, 4-([4-(H-Ala-Ala-Pro-Val-Ala)amido N-piperazino]phenyl)-bis-(4-dimethyl-aminophenyl)-carbenium ion polyacrylamide (not fully specified)
T25 chain: AAPVX

[36] = target: T26, AAAPV-RBB bound to Beads (Sephabeads ECEP, epoxy activated)
T26 chain: AAAPX

[37] = target: T27, AAPVA-RBB linked to polymer, product of Step A of Example 62 after trifluoroacetic acid treatment (not fully specified)
T27 chain: AAPVX

[38] = target: Peptide-Labelled beadBALL Amine Microspheres with Long-Chain Linker (PEG(2000)-AAPV-RBB)

elastase
cleavage, product found by MS [1]: reaction with elastase to yield the mono-acetylated-Remazol Black B-amino derivative
release of A-RBB, MS-analysis [2]: Treatment with elastase released A-RBB, as found by MS-analysis (m/z=571, negative mode)
release of the dye, ESI MS (CMC 9M31F-AAPFA-RBB [3]): Reaction with elastase was detected using ESI MS to detect the release of the dye
release of Ahx-CV, MS-analysis (H-AAPV-Ahx-CV): Treatment of the product of Example 72 with elastase releases no Ahx-CV, as found by MS-analysis (no m/z=526, positive mode)
release of Ala-RBB, MS-analysis [4]: Treatment with elastase released Ala-RBB, as found by MS-analysis (m/z=571, negative mode)
release of A-CV, MS-analysis [5]: Treatment of the material with elastase released A-CV, as found by MS-analysis (m/z=484, positive mode)
release of the dye, ESI MS (CMC 9M31F-AAPF-RBB [6]): Reaction with elastase is detected using ESI MS to detect the release of the dye

B1: cathepsin G (protein)
chain: IIGGRESRPHSRPYMAYLQIQSPAGQSRCGGFLVREDFVLTAAHCWGSNINVTLGAHNIQRRENTQQHITARRAIRHPQYNQRTIQNDIMLLQLSRRVRRNRNVNPVALPRAQEGLRPGTLCTVAGWGRVSMRRGTDTLREVQLRVQRDRQCLRIFGSYDPRRQICVGDRRERKAAFKGDSGGPLLCNNVAHGIVSYGKSSGVPPEVFTRVSSFLPWIRTTMRS
Cathepsin Cleavage [7]: 0
Cathepsin Cleavage (H-AAPVAA-RBB): 0
Cathepsin Cleavage (Fmoc-AAAPM-RBB): 0
Cathepsin Cleavage (Fmoc-APV-Indoxyl ester): 0
Cathepsin Cleavage (Fmoc-AAA-indoxyl ester): 0
Cathepsin Cleavage (Fmoc-AAPF-Indoxyl ester): 0
Cathepsin Cleavage (H-AAPFA-RBB): 0
Cathepsin Cleavage [8]: 0
Cathepsin Cleavage [9]: 0
Cathepsin Cleavage [10]: 0
Cathepsin Cleavage [11]: 0
Cathepsin Cleavage (Fmoc-AAPV-(2-Napthol)): 0
Cathepsin Cleavage (Fmoc-AAAA-Indoxyl ester): 0
Cathepsin Cleavage [12]: +
Cathepsin Cleavage (CMC 9M31F-AAPFA-RBB [13]): ++
Cathepsin Cleavage [14]: 0
Cathepsin Cleavage (H-AAAPM-RBB): 0
Cathepsin Cleavage (H-AAPF-RBB): 0
Cathepsin Cleavage (CMC 9M31F-AAPF-RBB [15]): ++
Cathepsin Cleavage [16]: +
Cathepsin Cleavage (Fmoc-AAPA-Indoxyl ester): 0

B2: human elastase from leucocytes (protein)
chain: IVGGRRARPHAWPFMVSLQLRGGHFCGATLIAPNFVMSAAHCVANVNVRAVRVVLGAHNLSRREPTRQVFAVQRIFENGYDPVNLLNDIVILQLNGSATINANVQVAQLPAQGRRLGNGVQCLAMGWGLLGRNRGIASVLQELNVTVVTSLCRRSNVCTLVRGRQAGVCFGDSGSPLVCNGLIHGIASFVRGGCASGLYPDAFAPVAQFVNWIDSIIQ
Human Elastase Cleavage [17]: +++
Human Elastase Cleavage (Fmoc-AAAPV-3-Indolamide): ++
Human Elastase Cleavage [18]: 0
Human Elastase Cleavage [19]: ++
Human Elastase Cleavage [20]: +
Human Elastase Cleavage [21]: +++
Human Elastase Cleavage [22]: +++
Human Elastase Cleavage [23]: ++
Human Elastase Cleavage (Fmoc-APV-Indoxyl ester): +
Human Elastase Cleavage [24]: ++
Human Elastase Cleavage [25]: +
Human Elastase Cleavage (Fmoc-AAA-indoxyl ester): ++
Human Elastase Cleavage (AAPV-RBB-Labelled Silica): ++
Human Elastase Cleavage (Fmoc-AAPF-Indoxyl ester): +
Human Elastase Cleavage [26]: +
Human Elastase Cleavage [27]: +++
Human Elastase Cleavage [10]: +
Human Elastase Cleavage [11]: +
Human Elastase Cleavage [28]: +++
Human Elastase Cleavage (Fmoc-AAPV-(2-Napthol)): +
Human Elastase Cleavage [29]: +
Human Elastase Cleavage (Fmoc-AAAA-Indoxyl ester): 0
Human Elastase Cleavage [30]: +++
Human Elastase Cleavage [31]: +++
Human Elastase Cleavage [32]: +++
Human Elastase Cleavage (Fmoc-AAPV-Indoxyl ester): +++
Human Elastase Cleavage [14]: 0
Human Elastase Cleavage (Fmoc-AAAPV-Indoxylester): ++
Human Elastase Cleavage [33]: ++
Human Elastase Cleavage [34]: 0
Human Elastase Cleavage [35]: 0(+)
release of A-CV, mass peak [35]: Treatment with porcine and human elastase releases A-CV, as proven by the appearance of a mass peak at m/z=484
Human Elastase Cleavage [36]: 0
Human Elastase Cleavage [37]: ++
Human Elastase Cleavage (H-AAAPM-RBB): +
Human Elastase Cleavage [38]: 0
Human Elastase Cleavage (Fmoc-AAPA-Indoxyl ester): +++
